# According to paper doi:10.1101/2021.09.16.459956:
# Target: Paracoccidioides americana (Pb03) Cbp1 (Paracoccidioides americana (Pb03))
# Assay: crystal structure
substance,measurement,value
Paracoccidioides americana (Pb03) Cbp1 (natural protein),stoichiometry N,2
